Assay results taken from publication PMC6224480, “Insights into Kinesin-1 Activation from the Crystal Structure of KLC2 Bound to JIP3” (Structure(London, England:1993), 2018).
One block for each molecule: values may come before it.

Key:
KLC2^TPR = assay: ITC of KLC2^TPR binding to GST3C-JIP3^LZ, two-stage sequential model; set-up: species or system murine; conditions: for K, macroscopic association constant / ΔH / –TΔS: ITC, 25°C, 0.5 M NaCl, pH 7.5, globally fitted over four experiments; for K, macroscopic association constant: 25 mM HEPES, 5 mM MgCl2, 1 mM TCEP
Experimental: For ITC studies with the KLC2^TPR and GST-JIP3^LZ, the high KLC2^TPR concentrations required to use this protein as titrant necessitated a higher salt concentration than that used for crystallographic studies. The KLC2^TPR was prepared as above for crystallographic studies but the final size exclusion chromatography step was performed in 500 mM NaCl, 25 mM HEPES, 5mM MgCl2, 1 mM TCEP (final pH 7.5). The GST-JIP3^LZ protein was bound to glutathione sepharose resin in batch as described above for the JIP3^LZ. The GST-JIP3^LZ protein was eluted in 0.25 M NaCl, 50 mM TRIS.HCl, 1 mM TCEP, 25 mM glutathione; final pH 7.5, and purified by size exclusion chromatography on a Superdex 200 16/600 column (GE Healthcare) equilibrated in 500 mM NaCl, 25 mM HEPES, 5mM MgCl2 and 1 mM TCEP (final pH 7.5).
To study the binding of the KLC2^TPR to GST3C-JIP3^LZ, the proteins were prepared by size exclusion chromatography in 0.5 M NaCl, 25 mM HEPES, 5 mM MgCl2, 1 mM TCEP, final pH 7.5. ITC measurements were performed on a MicroCal iTC200 calorimeter (Malvern) at 25°C, with a differential power of 5.0 μcal/s and stirring at 750 rpm. Experiments consisted of an initial sacrificial 0.5 μl injection, followed 120 s later by 19 injections of 2 μl spread over 4 s, spaced 120 s apart. Thermograms were integrated and corrected for heats of dilution using NITPIC (http://biophysics.swmed.edu/MBR/software.html). The resulting isotherms were analysed in SEDPHAT (http://www.analyticalultracentrifugation.com/sedphat/) ([Keller et al., 2012], [Zhao et al., 2015]). The isotherms from these experiments were globally fitted with the A + B + B → AB + B → ABB model. […] Figures were prepared using GUSSI (http://biophysics.swmed.edu/MBR/software.html).

CD spectroscopy = type: physicochemical; conditions: 20°C, 20 mM potassium phosphate pH 7.5, 0.5 mM DTT, SELCON3, 0.29, 0.14 and 0.086 mg/ml
Experimental: (§1) All CD spectra were recorded on a Chirascan CD spectrometer (Applied Photophysics) in quartz cuvettes with a 0.1 cm path length. Data were recorded at 20°C between 260 - 180 nm in 1 nm increments and a 2 nm bandwidth over an average of two scans. The KLC2^TPR-myc and Trp-JIP3^LZ proteins were dialysed extensively into 20 mM potassium phosphate pH 7.5, 0.5 mM DTT. Spectra were collected from KLC2^TPR-myc samples at concentrations of 0.29, 0.14 and 0.086 mg/ml. Trp-JIP3^LZ spectra were collected at 0.15, 0.074 and 0.044 mg/ml. One spectrum was recorded for each sample at each concentration and background-corrected by subtraction of a buffer-only spectrum. Corrected spectra were converted to units of mean residue ellipticity and deconvolved using the Dichroweb server ([Whitmore and Wallace, 2008]). KLC2^TPR-myc and Trp-JIP3^LZ spectra were analysed using the SELCON3 and CONTIN algorithms, respectively, using reference dataset set 4 ([Sreerama et al., 1999], [van Stokkum et al., 1990]). For each protein, the mean percentage of each secondary structure type, and the corresponding standard deviation, was calculated from the values obtained from the three concentrations. The secondary structure content for KLC2^TPR-myc and Trp-JIP3^LZ were calculated using the KLC2^TPR:JIP3^LZ crystal structure using the STRIDE server (http://webclu.bio.wzw.tum.de/cgi-bin/stride/stridecgi.py) ([Frishman and Argos, 1995]).

SEC-MALLS = type: physicochemical; conditions: 25 mM HEPES pH 7.5, 0.1 M NaCl, 1 mM TCEP
Experimental: Fifty microliters of JIP3^LZ was injected onto a WTC-030S5 column, pre-equilibrated with buffer containing 25 mM HEPES pH 7.5, 0.1 M NaCl and 1 mM TCEP at a flow rate of 1 ml/min. Data were recorded using a DAWN 8+ multi-angle light scattering (LS) detector, an Optilab T-rEX differential refractive index (dRI) detector and UV absorbance (UV) detector (Wyatt Technology) and analyzed with the Astra 6.2 software package provided by the manufacturer (Wyatt Technology).

[1] = Secondary structure content calculated from the KLC2^TPR:JIP3^LZ crystal structure (STRIDE)
Experimental: as §1, with “Corrected spectra were converted to units of mean residue ellipticity and deconvolved using the Dichroweb server ([Whitmore and Wallace, 2008]).” left out

[2] = stage A + B + B → BA + B (first KLC2^TPR)
[3] = stage BA + B → BAB (second KLC2^TPR)

thermodynamic driving force (KLC2^TPR; binding of the first KLC2^TPR): enthalpically driven
thermodynamic driving force (KLC2^TPR; binding of the second KLC2^TPR): entropically driven
K, macroscopic association constant (KLC2^TPR; [2]): 0.1317 µM⁻¹
ΔH (KLC2^TPR; [2]): -18.756 kcal/mol
–TΔS (KLC2^TPR; [2]): 11.772 kcal/mol
K, macroscopic association constant (KLC2^TPR; [3]): 0.1315 µM⁻¹
ΔH (KLC2^TPR; [3]): 0.952 kcal/mol
–TΔS (KLC2^TPR; [3]): -7.935 kcal/mol
cooperativity of binding of two KLC2^TPR subunits (KLC2^TPR; suggested by very similar macroscopic association constants): positive cooperativity
B1: GST-JIP3^LZ: GST and 3C site fused to murine JIP3 isoform A leucine zipper, residues 417-487 (protein, UniProt Q9ESN9 417-487, looked up, fragment)
chain: MGKEVGNLLLENSQLLETKNALNVVKNDLIAKVDQLSGEQEVLKGELEAAKQAKVKLENRIKELEEELKRV
modifications: isoform A N-terminal GST tag, 3C site

B2: KLC2^TPR-myc: murine KLC2 residues 191-480 with … fused to the C-terminus (protein)
chain: GYEIPARLRTLHNLVIQYASQGRYEVAVPLCKQALEDLEKTSGHDHPDVATMLNILALVYRDQNKYKDAAHLLNDALAIREKTLGKDHPAVAATLNNLAVLYGKRGKYKEAEPLCKRALEIREKVLGKFHPDVAKQLSNLALLCQNQGKAEEVEYYYRRALEIYATRLGPDDPNVAKTKNNLASCYLKQGKYQDAETLYKEILTRAHEKEFGSVNGENKPIWMHAEEREESKDKRRDRRPMEYGSWYKACKVDSPTVNTTLRTLGALYRPEGKLEAAHTLEDCASRSRKQ
modifications: left off: His6-SUMO, N-terminal, cleaved | myc (…), C-terminal, kept
secondary structure content by CD versus crystal structure (CD spectroscopy): very similar to that calculated from the KLC2^TPR:JIP3^LZ crystal structure

B3: JIP3^LZ: JIP3 leucine zipper domain, residues 417-487 of murine JIP3 isoform A (protein)
chain: WMGKEVGNLLLENSQLLETKNALNVVKNDLIAKVDQLSGEQEVLKGELEAAKQAKVKLENRIKELEEELKRV
modifications: left off: GST, N-terminal, cleaved
notes: JIP3 leucine zipper domain, residues 417-487 of murine JIP3 isoform A
oligomeric state in solution (SEC-MALLS): stable dimer
α-helical content calculated from crystal structure [1]: 77%
